Measured values reported in US20240409663A1 (CONCEPT TO MEDICINE BIOTECH, published 2024).
Where two headings read alike, the source gives them in different places.

Columns and labels:
Test in all cases: FACS, GPC3-CHOK1 cells
human GPC3 on cells [1] = target: T1, human GPC3 on cells (human, UniProt P51654 25-554)
T1 construct: whole, on cells; over-expressed on CHOK1 cells or endogenous on HEPG2, Hep3B and Huh-7 hepatocellular carcinoma cells; the cell line is named under assay; also called GPC3-CHOK1 cells; human GPC3 over-expressed CHOK1 cells
Method: Cell-based binding: FACS was used to evaluate the binding activity of chimeric mAbs (18C1D9, 52H5D3B8, 163E7D12, 172B4E9, 152E9F7 and 171F9C5) with comparison to a known GPC3 antibody GC33 (Chugai Pharmaceutical) on human GPC3 over-expressed CHOK1 cells.
Briefly, GPC3-CHOK1 cells were washed by FACS buffer and divided to each well with 3-fold serially diluted chimeric mAbs or GC33 mAb starting at 5 μg/mL at 4° C. for 40 mins. […] Samples were washed twice with FACS buffer.

human GPC3 on cells [2] = target: T1, human GPC3 on cells; remark: listed apart in the source
How it was run: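 After Fc blocking (4 °C, 15 min), GPC3-CHOK1 cells were incubated for 60 min at 4 °C with 3-fold serially diluted chimeric mAbs starting at 30 μg/mL. Cells then washed and fixed in 2% PFA at room temperature for 15 min.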

human GPC3 on cells [3] = target: T1, human GPC3 on cells; remark: listed apart in the source
Method: To evaluate the antigen binding property, the humanized antibodies were analyzed for their binding to human GPC3 over-expressed CHOK1 cells and Huh-7 cells by FACS. Briefly, GPC3-CHOK1 cells and Huh-7 cells were firstly incubated with Fc blocking reagent at 4° C. for 15 mins. Cells were washed by FACS buffer and divided to each well with 4-fold serially diluted humanized antibodies starting at 10 μg/mL at 4° C. for 60 mins. Cells were washed by FACS buffer and fixed with 2% PFA at RT for 15 mins. […] As different plates might affect the EC50 of 52H5D3B8-VH+VL, the 12 humanized antibodies were separated into two plates.

B1: 52H5D3B8 chimeric mAb (antibody, V domains shown)
VH: QVQLQQSGAELVRPGASVKLSCKALGYTFTDYEMHWVKQTPVHGLEWIGAIHPGSGGTAYNQKFKGKATLTADKFSSTGYMELSSLTSEDSAVYYCTRFYSYAYWGQGTLVTVSA
VL: DVVMTQTPLSLPVSLGDQASISCRSSQSLVHSNGNTYLQWYLQKPGQSPKLLIYKVSNRFSGVPDRFSGSGSGTDFILKISRVEAEDLGVYFCSQSIHVPYTFGGGTKLEIK
notes: also called 52H5D3B8-VH+VL; chimeric 52H5D3B8 mAb
EC50 (human GPC3 on cells [1]): 0.0909 µg/mL | EC50 (human GPC3 on cells [2]): 0.0705 µg/mL | EC50 (human GPC3 on cells [3]): 0.0477 µg/mL
